Assay results published in the RNAGym collection of RNA variant scans (doi:10.1073/pnas.2313332121).
Fewer inactive variants are shown than the library holds.

B1: TPR 5TU (parent)
chain: GGAUCUUCUCGAUCUAACAAAAAAGACAAAUCUGCCACAAAGCUUGAGAGCAUCUUCGGAUGCAGAGGCGGCAGCCUUCGGUGGCGCGAUAGCGCCAACGUUCUCAACUAUGACACGCAAAACGCGUGCUCCGUUGAAUGGAGUUUAUCAUG

Variants of: B1
Test: polymerase ribozyme fitness, log enrichment relative to wild type (log ratio); higher = more active; in vitro selection for triplet polymerase activity
How it was run: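 Streptavidin-bead capture of gel-excised extended constructs, followed by RT-PCR, closed a single triplicate in vitro selection round. That round began by annealing PCR-built, transcribed mutant libraries of each subunit of a heterodimeric triplet polymerase ribozyme with a biotinylated primer, the partner subunit and triplets, then incubating them frozen at −7 °C. After Illumina sequencing of inputs and outputs, genotypes needed ≥10 input reads and ≥1 read per output. Fitness is the base-2 logarithm of genotype enrichment over wild-type enrichment, using inverse-variance-weighted replicate averages.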

Row | Variant | polymerase ribozyme fitness (log ratio)
1 | C32G G46U A47C G59A | -4.03
2 | U31G G68A C75G C105G C131G U139G | ≤ -4.2
3 | U31A C38G G58A | 0.153
4 | U31A C95G A119U | -1.25
5 | U31A C116U | -0.00779
6 | U31C G81C C85U C99G | -0.592
7 | C32G C72G C87G C114U U139A | ≤ -4.2
8 | U31A C79U | -2.71
9 | C32U G68A | -3.89
10 | U31G A60C | -1.23
11 | U31G A60U | 0.29
12 | A30U U55A C79U C87U A115C C118G | ≤ -4.2
13 | C32G C57U G83U C103A C116U U127G G143U | ≤ -4.2
14 | C32U G81C C114G | ≤ -4.2
15 | C32G U53G A73C C131A A142G | ≤ -4.2
16 | U31G U33G U61G C72U C87G A106C U135G | ≤ -4.2
17 | C32A C54A U130A | ≤ -4.2
18 | C32U G65A G71C G94U | ≤ -4.2
19 | U31A C75G C76G G83U C95U A115U | ≤ -4.2
20 | U31G C35A A47C G74U C87G A142C | ≤ -4.2
21 | U31G A40U G42A C85A U148C | ≤ -4.2
22 | C32U C51G G70A C76U G83U G84A A98G U135G | ≤ -4.2
23 | U31G G48U G58A C79A C85U U101G | ≤ -4.2
24 | U31C U148A | -2.56

Row | Variant | polymerase ribozyme fitness (log ratio)
25 | C32G U33G G92A C114U | -4.15
26 | C32G G50A C63U A91G C125G A147G | ≤ -4.2
27 | C32G G58A C93A G128A | -4.2
28 | U31C C76G U109G A119G G141C | ≤ -4.2
29 | C32A U45A G80C C87G U90G G152U | ≤ -4.2
30 | U31G A39G C85U G94C | -3.27
31 | U31A C32G C72G A150U | ≤ -4.2
32 | U31G C36U U53A G58C C69U G83U C118A U134A G143C G152U | ≤ -4.2
33 | C32A A37C C54G G83A C118A G136U A138C G141C U145G | ≤ -4.2
34 | U31G G50C G58U G88U | ≤ -4.2
35 | U31C G58C C95G A97G G143A | -2.96
36 | A30U U56G G58U A73G C85U C105U G141C | ≤ -4.2
37 | U31G G92U U127G | -4.07
38 | C32G A41C A60U G92U G140C | ≤ -4.2
39 | C32U U44A A91G C118A | ≤ -4.2
40 | U31C A49U G74A G84U G117C G133U A142C | ≤ -4.2
41 | U31C A64G G84A A91U C99A U135C G141C | ≤ -4.2
42 | U31A C38G G86A G136A | -1.16
43 | C32U G68U C87G C99G | -4.11
44 | U31G A113U U134G | -3.56
45 | C32G C72U | -4.2
46 | C32U C54G C85A A119U G126A C149A | ≤ -4.2
47 | U31C G48C G94C A106U | ≤ -4.2
48 | U31G A37C C95U U109G G143U G152C | ≤ -4.2

Row | Variant | polymerase ribozyme fitness (log ratio)
49 | U31A A47G A73U G83A | -3.5
50 | U31A A49C U82G G84C U127G C131U U151A | ≤ -4.2
51 | U31C C95U A97U C99U G133U A150G | ≤ -4.2
52 | U31A C69A G92U A115U | -3.26
53 | A30U U56A G58C C132A A147U | ≤ -4.2
54 | C32G A47G C72A A73C C96A U127C | ≤ -4.2
55 | C32G G81A | -4.14
56 | U31C G83C A107U | -4
57 | U31G A52G U55G A98U | -0.355
58 | U31C A52U G58A C95G U145A | -3.19
59 | C32A G86C | ≤ -4.2
60 | U31A U53A G83U G100C G133A | ≤ -4.2
61 | U31G U33A A89G U144C U146A | -4.01
62 | C32A G74U C85A A98U | -0.754
63 | C32A A49U C72A C85A U90G A98G A120C U151A | ≤ -4.2
64 | U31A G143A | -0.454
65 | U31A C93A C129U | -2.44
66 | U31A C85U U101A A150U | -1.46
67 | C32G A73U A97U A120G G126A | ≤ -4.2
68 | U31A G86U C99U | -1.18
69 | U31A G46A U82C A89G U145C | -3.66
70 | U31C C51A G74U G84A C87A A113G A115C | ≤ -4.2
71 | U31G A73G G84A | 0.0111
72 | U31G C99G U102G C108A C125U U127G U145G | ≤ -4.2

Row | Variant | polymerase ribozyme fitness (log ratio)
73 | C32G C72G C87A A98G | ≤ -4.2
74 | C32G U56A C57U C76A C93A C118G U135C | ≤ -4.2
75 | C32A A52G U53A G65C C99U G143U | ≤ -4.2
76 | C32A G50A C57A U82A C99A U101A | ≤ -4.2
77 | C32G C79G C103G C105U A119U G140U | ≤ -4.2
78 | U31G C54G A60G C85A C99A | ≤ -4.2
79 | U31C U45G G46C G83U G94C A115U A119C A142U A150U | ≤ -4.2
80 | C32A G71U A91G A119G A120U U127C G136C | ≤ -4.2
81 | U31C G92A C118G | -2.66
82 | U31C A89C C93U U135A | -2.87
83 | U31A A40U A49C U61A C76G C85U | ≤ -4.2
84 | U31A C93U A121U | -0.469
85 | C32A C69A U145C | -3.25
86 | U31A A37U U90G C93U C125G G141A | ≤ -4.2
87 | U31G G46C C79U G117C U144C | ≤ -4.2
88 | C32A A37G C54A G86C C99A A113G C125U U135A | ≤ -4.2
89 | C32G C76A C99A | -4.15
90 | C32G A37U U53A | ≤ -4.2
91 | C32U G68A G80C C96G A150U | ≤ -4.2
92 | U31G C95U G126C | 0.488
93 | C32G A40U C95A | -3.93
94 | U31G C38A U45A G83C C95A | ≤ -4.2
95 | U31G C96U C99U U127G | ≤ -4.2
96 | U31C C87A C108U U148C | -3.95

Row | Variant | polymerase ribozyme fitness (log ratio)
97 | U31C U45C A49U G80A C114A U130C U134A | ≤ -4.2
98 | U31C C85G A89G C93U | ≤ -4.2
99 | U31A U78C U146C | -0.876
100 | U31A G100U | ≤ -4.2
101 | C32U G59U C85U A115G | -3.62
102 | C32A G84A A89G A97G U134A U148A | ≤ -4.2
103 | U31G G50U U82C A147U | -0.72
104 | C32G A40C G83C A110U U111C | ≤ -4.2
105 | C32G G42C A47G G59C A91U A107G | ≤ -4.2
106 | C32A A47C A122G A147C | ≤ -4.2
107 | U31G G83U | -0.727
108 | U31C G48A C79A C105U A120G G141U A147C | ≤ -4.2
109 | A30U U56A C93U G141A | ≤ -4.2
110 | C32G A60G U144G | ≤ -4.2
111 | C32A G80U C96U A138U | ≤ -4.2
112 | U31A A120G | 0.523
113 | C32G G48A G67U C85U C93G U145G | ≤ -4.2
114 | C32U C36G A39U G59U A120G | -4.07
115 | C32U A40C | -4.1
116 | U31C G34A U56G A60G A73G G84A A89U | ≤ -4.2
117 | U31A G58U U146G | -0.274
118 | C32G U45A U56A A91U C93G A107C | ≤ -4.2
119 | U31C A40C A41C | -0.373
120 | U31A C103U | 0.00968

Row | Variant | polymerase ribozyme fitness (log ratio)
121 | A30U U53G G84A | -4.15
122 | C32A G94A | -4
123 | C32U C75U G81A G84C A121C U127C A138G G140A | ≤ -4.2
124 | C32A U55G C69G | -3.22
125 | U31G G48C U111G G143A | ≤ -4.2
126 | C32G G94A A97U | ≤ -4.2
127 | U31A A91G A106G G117A A119U U146C | -1.71
128 | U31G G46C A60U A73G C76G C79U G92A C93U C96G U135G | ≤ -4.2
129 | U31C A41U G48C U55G A89U | -2.77
130 | C32G C108G G140U G141A U145G | ≤ -4.2
131 | U31G A40G C54A C93A C103A U109A U134A G136U | ≤ -4.2
132 | U31A C63U G84A C103A G112A A137U G152U | ≤ -4.2
133 | C32U C96U C149U U151A | ≤ -4.2
134 | C32G U53A G86C A91C A120U A121U | ≤ -4.2
135 | U31A G50A C57U C85U A119C | -1.76
136 | C32U U56A G74A | 0.713
137 | C32U C43A C87G A107C C118U G124C | ≤ -4.2
138 | U31G G84U | -0.431
139 | U31G C93U C99U C116A A119G A142C | ≤ -4.2
140 | U31A C51G C54U A122G | -2.68
141 | A30U U45G G50A A66G A113G G152A | ≤ -4.2
142 | U31G G34A U61A C85G | ≤ -4.2
143 | C32G C57A G59A G74A C85U A120G U144C | -2.27
144 | C32U U77A A89U C93U A106U | ≤ -4.2

Row | Variant | polymerase ribozyme fitness (log ratio)
145 | C32U A60G | -1.63
146 | U31A A52C U104G U134G | ≤ -4.2
147 | U31A U78A C123G U135G G140U | ≤ -4.2
148 | C32U G126U | -2.43
149 | C32U C96G U130G | -3.47
150 | C32G C76A C87A | ≤ -4.2
151 | A30U U78C G94U A98G G152A | ≤ -4.2
152 | U31C C32A C38U U56A G86A A98U | -4.14
153 | C32G G88C | -3.96
154 | C32U C38U G58C | -2.43
155 | C32A A37G U61G G94U G124U | ≤ -4.2
156 | C32U C116G | -2.9
157 | U31C A49C C93G U135G G143A | ≤ -4.2
158 | C32G U56A | -4.1
159 | U31G A49C A52G A97C A120U U135C U148G | ≤ -4.2
160 | C32G A91G | ≤ -4.2
161 | C32U A52U G84U | ≤ -4.2
162 | C32A U56A C103G A107U | ≤ -4.2
163 | C32A A39G G50U U55A A73U C75A A138U | ≤ -4.2
164 | C32U A66G A98U | -4.11
165 | U31C G94C | 0.811
166 | C32G A110C | ≤ -4.2
167 | C32G A64U C105U G152U | ≤ -4.2
